# Measurements as given in the supplement of paper PMC7877785.
# ± gives the uncertainty stated by the source.
# Test: self-splicing fitness, log relative to wild type (ln ratio); higher = more splicing; Tetrahymena group I intron in knt gene, E. coli kanamycin selection, DiMSum; sequences stand for … in CUCUCU…GGAGGGAAAAGUUAUCAGGCAUGCACCUGGUAGCUAGUCUUUAAACCAAUAGAUUGCAUCGGUUUAAAAGGCAAGACCGUCAAAUUGCGGGAAAGGGGUCAACAGCCGUUCAGUACCAAGUCUCAGGGGAAACUUUGAGAUGGCCUUGCAAAGGGUAUGGUAAUAAGCUGACGGACAUGGUCCUAACCACGCAGCCAAGUCCUAAGUCAACAGAUCUUCUGUUGAUAUGGAUGCAGUUCACAGACUAAAUGUCGGUCGGGGAAGAUGUAUUCUUCUCAUAAGAUAUAGUCGGACCUCUCCUUAAUGGGAGCUAGCGGAUGAAGUGAUGCAACACUGGAGCCGCUGGGAACUAAUUUGUAUGCGAAAGUAUAUUGAUUAGUUUUGGAGUACUCGUGGUCG
# Outline: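 A randomised library covering all eight P1ex-region intron nucleotides was built with the intron in the knt kanamycin-resistance gene on pET-22b(+) and held in E. coli BL21(DE3). Cells were grown overnight at 37°C or 30°C on LB agar, with or without 25 μg/mL kanamycin, plus 100 μg/mL carbenicillin, 50 μM IPTG and 0.2% rhamnose, and pooled colonies were amplicon-sequenced on an Illumina HiSeq 2500. DiMSum fitness is the error-weighted combination of wild-type-normalised replicate fold changes, kanamycin versus none.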
Sequence,self-splicing fitness (ln) (30 °C),self-splicing fitness (ln) (37 °C)
ACUUAGCAAUAUUACGCUUU,-1.69 ± 0.088,-1.42 ± 0.14
ACUUAGCAAUAUUACGGAAC,-3.24 ± 0.19,-1.07 ± 0.34
ACUUAGCAAUAUUACGGCGA,-1.21 ± 0.21,-0.343 ± 0.21
ACUUAGCAAUAUUACGGCUC,-0.897 ± 0.061,-0.503 ± 0.077
ACUUAGCAAUAUUACGGGCG,-0.769 ± 0.078,-0.483 ± 0.085
ACUUAGCAAUAUUACGGGUC,-3.35 ± 0.13,-3.27 ± 0.2
ACUUAGCAAUAUUACGGGUG,-1.14 ± 0.059,-0.754 ± 0.085
ACUUAGCAAUAUUACGGUCG,-2.52 ± 0.17,-1.35 ± 0.2
ACUUAGCAAUAUUACGUCCG,-2.09 ± 0.2,-0.774 ± 0.25
ACUUAGCAAUAUUACGUCUA,-1.67 ± 0.16,-1.83 ± 0.17
ACUUAGCAAUAUUACGUGUG,-2.2 ± 0.09,-1.06 ± 0.087
ACUUAGCAAUAUUACGUUGC,-3.9 ± 0.38,-1.8 ± 0.26
ACUUAGCAAUAUUACGUUGU,-2.9 ± 0.15,-2.12 ± 0.15
AGAAAGCAAUAUUACGAAGA,-2.95 ± 0.24,-2.27 ± 0.33
AGAAAGCAAUAUUACGACGG,-2.82 ± 0.24,-0.965 ± 0.29
AGAAAGCAAUAUUACGAGCG,-1.21 ± 0.095,-0.574 ± 0.13
AGAAAGCAAUAUUACGAUAA,-1.21 ± 0.054,-0.539 ± 0.073
AGAAAGCAAUAUUACGAUCG,-0.0642 ± 0.072,-0.026 ± 0.091
AGAAAGCAAUAUUACGAUUA,-0.175 ± 0.12,-0.183 ± 0.15
AGAAAGCAAUAUUACGCACG,-0.407 ± 0.18,-0.88 ± 0.22
AGAAAGCAAUAUUACGCAGC,-2.92 ± 0.2,-2.33 ± 0.2
AGAAAGCAAUAUUACGCAUA,-2.44 ± 0.16,-1.19 ± 0.16
AGAAAGCAAUAUUACGCCAG,-2.29 ± 0.2,-0.433 ± 0.17
AGAAAGCAAUAUUACGCCUA,-1.36 ± 0.14,-1.04 ± 0.17
AGAAAGCAAUAUUACGCGAG,-1.28 ± 0.11,-0.453 ± 0.13

Sequence,self-splicing fitness (ln) (30 °C),self-splicing fitness (ln) (37 °C)
AGAAAGCAAUAUUACGCGCG,-0.0244 ± 0.1,-0.00454 ± 0.14
AGAAAGCAAUAUUACGCUAU,-2.98 ± 0.18,-1.62 ± 0.18
AGAAAGCAAUAUUACGGAGG,-3.33 ± 0.16,-2.72 ± 0.3
AGAAAGCAAUAUUACGGCCG,-0.348 ± 0.11,-0.28 ± 0.14
AGAAAGCAAUAUUACGGGAC,-3.06 ± 0.26,-2 ± 0.32
AGAAAGCAAUAUUACGGUAU,-2.66 ± 0.14,-0.578 ± 0.12
AGAAAGCAAUAUUACGGUUA,-0.628 ± 0.1,-0.679 ± 0.083
AGAAAGCAAUAUUACGUACC,-0.284 ± 0.087,0.446 ± 0.12
AGAAAGCAAUAUUACGUAGC,-4.04 ± 0.22,-2.5 ± 0.2
AGAAAGCAAUAUUACGUAGU,-2.98 ± 0.15,-1.55 ± 0.1
AGAAAGCAAUAUUACGUAUC,-3.62 ± 0.3,-2.34 ± 0.24
AGAAAGCAAUAUUACGUCAA,-1.61 ± 0.11,-0.692 ± 0.1
AGAAAGCAAUAUUACGUCAC,-3.52 ± 0.3,-2.61 ± 0.38
AGAAAGCAAUAUUACGUGAC,-2.53 ± 0.32,-1.65 ± 0.24
AGAAAGCAAUAUUACGUGGG,-3.69 ± 0.17,-1.3 ± 0.12
AGAAAGCAAUAUUACGUGUU,-3.31 ± 0.15,-1.99 ± 0.12
AGACAGCAAUAUUACGAACC,-0.535 ± 0.12,-0.29 ± 0.19
AGACAGCAAUAUUACGAAGA,-3.75 ± 0.33,-2.41 ± 0.34
AGACAGCAAUAUUACGACGC,-0.912 ± 0.086,-0.726 ± 0.11
AGACAGCAAUAUUACGAGCC,-0.273 ± 0.14,-0.798 ± 0.21
AGACAGCAAUAUUACGAGGA,-3.17 ± 0.22,-0.745 ± 0.17
AGACAGCAAUAUUACGAUCC,-0.233 ± 0.083,-0.102 ± 0.11
AGACAGCAAUAUUACGAUGC,-3.36 ± 0.23,-2.33 ± 0.19
AGACAGCAAUAUUACGCAGG,-3.5 ± 0.2,-1.25 ± 0.16
AGACAGCAAUAUUACGCCCG,-0.434 ± 0.17,-0.555 ± 0.24

Sequence,self-splicing fitness (ln) (30 °C),self-splicing fitness (ln) (37 °C)
AGACAGCAAUAUUACGCGUU,-3.47 ± 0.16,-2.11 ± 0.14
AGACAGCAAUAUUACGCUAG,-4.3 ± 0.3,-2.81 ± 0.22
AGACAGCAAUAUUACGGCCA,-1.28 ± 0.11,-0.142 ± 0.11
AGACAGCAAUAUUACGGGUG,-3.07 ± 0.09,-2.37 ± 0.1
AGACAGCAAUAUUACGUAAG,-1.33 ± 0.075,-0.396 ± 0.088
AGACAGCAAUAUUACGUGUC,-3.93 ± 0.21,-3.7 ± 0.2
AGACAGCAAUAUUACGUGUU,-3.8 ± 0.16,-2.29 ± 0.14
AGACAGCAAUAUUACGUUGC,-3.73 ± 0.24,-3.26 ± 0.37
AGAGAGCAAUAUUACGAGCA,-2.68 ± 0.46,-1.31 ± 0.27
AGAGAGCAAUAUUACGAUCU,-4.39 ± 0.42,-2.22 ± 0.2
AGAGAGCAAUAUUACGCACU,-3.16 ± 0.34,-2.41 ± 0.32
AGAGAGCAAUAUUACGCAUC,-2.22 ± 0.28,-1.91 ± 0.22
AGAGAGCAAUAUUACGCCUA,-2.6 ± 0.48,-1.08 ± 0.33
AGAGAGCAAUAUUACGCCUU,-3.56 ± 0.29,-2.16 ± 0.21
AGAGAGCAAUAUUACGCGCC,-2.58 ± 0.46,–
AGAGAGCAAUAUUACGCGGC,-2.71 ± 0.26,–
AGAGAGCAAUAUUACGCUAC,–,-2.33 ± 0.45
AGAGAGCAAUAUUACGCUUG,-2.97 ± 0.3,-2.46 ± 0.35
AGAGAGCAAUAUUACGCUUU,-3.54 ± 0.41,-2.52 ± 0.45
AGAGAGCAAUAUUACGGAAU,-3.36 ± 0.32,-1.79 ± 0.44
AGAGAGCAAUAUUACGGAGA,–,-2.11 ± 0.37
AGAGAGCAAUAUUACGGAUC,-3.76 ± 0.42,–
AGAGAGCAAUAUUACGGCGA,-2.95 ± 0.39,-1.82 ± 0.39
AGAGAGCAAUAUUACGGCUC,-3.01 ± 0.27,-1.37 ± 0.25
AGAGAGCAAUAUUACGGGAC,–,-2.61 ± 0.44

Sequence,self-splicing fitness (ln) (30 °C),self-splicing fitness (ln) (37 °C)
AGAGAGCAAUAUUACGGGUU,-4.74 ± 0.46,-2.08 ± 0.23
AGAGAGCAAUAUUACGGUGC,-4.34 ± 0.42,-2.07 ± 0.29
AGAGAGCAAUAUUACGUAAG,-3.25 ± 0.26,-2.7 ± 0.36
AGAGAGCAAUAUUACGUAAU,-4.18 ± 0.33,-2.81 ± 0.34
AGAGAGCAAUAUUACGUAUC,–,-2.03 ± 0.17
AGAGAGCAAUAUUACGUCGA,-2 ± 0.32,–
AGAGAGCAAUAUUACGUGCU,–,-1.44 ± 0.28
AGAUAGCAAUAUUACGACCG,-1.01 ± 0.17,0.121 ± 0.32
AGAUAGCAAUAUUACGAGGC,-0.902 ± 0.39,-0.819 ± 0.21
AGAUAGCAAUAUUACGAUAC,-3.11 ± 0.26,-0.943 ± 0.19
AGAUAGCAAUAUUACGAUCG,0.112 ± 0.058,0.0462 ± 0.1
AGAUAGCAAUAUUACGAUUG,-1.65 ± 0.11,-1.81 ± 0.18
AGAUAGCAAUAUUACGCAAG,-2.2 ± 0.15,-0.0746 ± 0.16
AGAUAGCAAUAUUACGCACA,-0.827 ± 0.07,-0.123 ± 0.087
AGAUAGCAAUAUUACGCAUU,-2.76 ± 0.21,-1.02 ± 0.21
AGAUAGCAAUAUUACGCGUC,-2.53 ± 0.2,-0.587 ± 0.47
AGAUAGCAAUAUUACGGAGU,-3.25 ± 0.15,-2.33 ± 0.15
AGAUAGCAAUAUUACGGGCA,-1.12 ± 0.13,0.0415 ± 0.12
AGAUAGCAAUAUUACGGGGA,-3.46 ± 0.31,-3.05 ± 0.35
AGAUAGCAAUAUUACGGGUA,-1.35 ± 0.11,-1.8 ± 0.14
AGAUAGCAAUAUUACGGUGU,-2.01 ± 0.096,-1.15 ± 0.1
AGAUAGCAAUAUUACGUACC,-0.423 ± 0.13,0.0629 ± 0.14
AGAUAGCAAUAUUACGUACG,-1.38 ± 0.096,-0.00695 ± 0.11
